Target: ASFV RNA polymerase subunit vRPB3-11 (African swine fever virus, strain BA71V, UniProt Q65184 1-359)
Experiment: cryo-EM structure
Conditions: both partners purified

ASFV RNA polymerase subunit vRPB3-11, sequence (Q65184 whole entry): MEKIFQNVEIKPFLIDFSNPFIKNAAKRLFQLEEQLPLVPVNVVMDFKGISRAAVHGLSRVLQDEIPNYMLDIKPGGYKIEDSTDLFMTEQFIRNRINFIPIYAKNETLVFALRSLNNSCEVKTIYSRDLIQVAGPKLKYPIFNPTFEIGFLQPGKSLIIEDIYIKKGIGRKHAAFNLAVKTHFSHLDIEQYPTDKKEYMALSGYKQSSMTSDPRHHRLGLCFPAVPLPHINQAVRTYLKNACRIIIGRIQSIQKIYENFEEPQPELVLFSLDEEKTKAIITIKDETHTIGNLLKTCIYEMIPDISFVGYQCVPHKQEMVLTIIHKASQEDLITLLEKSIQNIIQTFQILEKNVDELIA

B1: ASFV RNA polymerase subunit vRPB10 (natural protein)
chain: MLIPVVCFTCGFPIGTYAAIFDKARTEYIKTKMDGTLPQNIPLDASLQIELKDLITALGIPMRVCCRTHLITTLDYRKYY
B1: binds.

Source: publication PMC10881513 (Nature Communications, 2024)
